This is an account of results in paper PMC12862363, “AURKB-driven dissolution of CIZ1–RNA assemblies from the inactive X chromosome in mitosis” (Nucleic Acids Research, 2026).

Data set [1] concerns C179WT (hCIZ1 C-terminal fragment) (Homo sapiens). Nature of the data set: EMSA. The note with it: 0.66 nM RNA; yeast tRNA 0.1 mg/ml; 10 mM Tris-HCl pH 7, 30 mM NaCl, 2.5 mM MgCl2, 0.1% IGEPAL CA-630, 0.1 mg/ml yeast tRNA, 1.5% RNaseOUT, 0.2 mM EDTA, 0.2 mM DTT, 30 C 20 min; 0.8% agarose/TBE ….
In data set [2] the target is human CIZ1-C179Δtail (human) (UniProt Q9ULV3). Nature of the data set: SEC-MALS; SEC-MALLS; 100 µl of >1 mg/ml purified protein, Superdex S200 10/300 GL, cleavage buffer (50 mM Tris-HCl pH 7, 150 mM NaCl, 1 mM EDTA, 1 mM DTT), 0.5 ml/min, room temperature (20 ± 2°C).
The target in data set [3] is murine CIZ1 fragment C181 (mouse) (UniProt Q8VEH2). Described as above.
Data set [4] concerns the molecule itself. Described as above.

In the case of Xist repeat E RNA probe, the binding signal (% probe shifted at 5 µM protein) in data set [1] is 99.

“human CIZ1-C179Δtail (from UniProt Q9ULV3-1 720-860) (domain or fragment)” gave a stoichiometry N in data set [2] of 2.

On to “murine CIZ1 fragment C181 (from UniProt Q8VEH2 665-845) (domain or fragment)”, for which the stoichiometry N in data set [3] is 2.

B1: human CIZ1-C179 (domain or fragment, UniProt Q9ULV3-1 720-898, looked up)
chain: EKEIAGQDEDHFITVDAVGCFEGDEEEEEDDEDEEEIEVEEELCKQVRSRDISREEWKGSETYSPNTAYGVDFLVPVMGYICRICHKFYHSNSGAQLSHCKSLGHFENLQKYKAAKNPSPTTRPVSRRCAINARNALTALFTSSGRPPSQPNTQDKTPSKVTARPSQPPLPRRSTRLKT
notes: the terminal residue is printed as Thr 898; also called hC179; C179WT; source: E. coli BL21 RP CodonPlus, purified (GSTrap, on-column PreScission cleavage, Superdex 200); not shown: GST, N-terminal, cleaved
Take B1: the “stoichiometry N” value in data set [4] was 2.
